Source: patent US6964763 (CORNELL RESEARCH FOUNDATION, dated 2005)

B1: Purified human calcium-replete thrombospondin-1 (TSP1) from thrombin-activated platelets (ligand)
chain: not shown
notes: mature; also called purified platelet TSP1

Legend:
[1] = target: B1; assay: solid phase binding, 125I-RANTES on immobilized TSP1; saturatable, biphasic
Experimental: (§1) Washed wells were blocked with 0.5% bovine serum albumin ("BSA"), then incubated in triplicate with soluble radiolabeled ligand for 2.5 hours at 37° C. After extensive washing in 50 mM Tris pH 7.5, 150 mM NaCl, 0.5% Tween-20 (TBS-Tween), bound radioactivity was quantified by gamma counter. […] Specific binding was determined as quenchable in the presence of excess unlabeled ligand, above background binding to BSA-coated wells.

[2] = target: T1, CHO cell-expressed soluble recombinant CD4 (UniProt P01730 26-394); assay: solid phase binding, 125I-CD4 on immobilized TSP1
T1 construct: also called soluble CD4
Experimental: as §1

| Binder | EC50 [1] [nM] | binding result [2] |
| --- | --- | --- |
| RANTES (regulated on activation normal T expressed and secreted protein) (ligand, UniProt P13501 24-91, looked up) SPYSSDTTPCCFAYIARPLPRAHIKEYFYTSGKCSNPAVVFVTRKNRQVCANPEKKWVREYINSLEMS | ~330 |  |
| B1 |  | binds |
